Reference: patent publication US20150157741A1 (published 2015)
Ends that are not written are not given here.

Biological target: T1, Recombinant Human ErbB2/Fc Chimera (produced by R&D Systems) (human, UniProt P04626 23-652)
T1 construct: Bought reagent; Immobilised by amine coupling on a GLM chip, about 3,000 RU; also called HER2; Fc part of the bought chimera not given
Assay: SPR (ProteOn XPR36), ErbB2/Fc amine-coupled on GLM chip, conjugate injected, 1:1 Langmuir fit
Experimental: The bonding property of the PEG including the capture molecule to HER2 serving as a target molecule was evaluated by a surface plasmon resonance method (SPR). In SPR, the measurement was performed using Proteon (registered trademark) XPR36 (produced by Bio-Rad Laboratories). Recombinant Human ErbB2/Fc Chimera (produced by R&D Systems) was dissolved into an acetate buffer (pH 5.0), and was immobilized by amine coupling to a carboxyl group on the GLM sensor chip surface. The amount of immobilization was about 3,000 RU (Resonance Unit). Subsequently, the PEG including the capture molecule was diluted to various concentrations with a phosphate buffer (pH 7.4) containing 0.005% of Tween20 and was injected into a flow cell at a flow rate of 50 microliters/min. As for the measurement times, an injection time (bonding) was 120 seconds and an elapsed time after stopping of injection (dissociation) was 120 seconds. In a bonding kinetic analysis experiment, sensor grams were analyzed using 1:1 Langmuir fitting model. The bonding property to HER2 was ensured with respect to every sample. In particular, strong bonding property was ensured with respect to scFv-PEG40, Af-PEG20, and Af-PEG40.

Row | Binder | Kd
1 | MARSGLGGKGSC(PEG ME‑200MA) (also: ICG-Sulfo-OSu conjugated, site not given here, Conjugate with PEG 20k and ICG) [pe-PEG20 (PEG ME-200MA modified with ICG and the HER2-binding peptide of Sequence No. 3)] | 2600 nM
2 | MARSGLGGKGSC(PEG ME‑400MA) (also: ICG-Sulfo-OSu conjugated, site not given here, Conjugate with PEG 40k and ICG) [pe-PEG40 (PEG ME-400MA modified with ICG and the HER2-binding peptide of Sequence No. 3)] | 3100 nM
